Assay results from article PMC5683647, “Comparison of histone-like HU protein DNA-binding properties and HU/IHF protein sequence alignment”.

Experiments:
[1] = target: T1, HU (Neisseria gonorrhoeae) (UniProt Q5F8J6); experiment: EMSA; details: 20 mM Tris-HCl pH 8.0, 150 mM NaCl, 7% glycerol; 15 min; labelled DNA 10.5 nM; gel in 100 mM Tris-borate; temperature not stated; low values mean tight binding
T1 sequence: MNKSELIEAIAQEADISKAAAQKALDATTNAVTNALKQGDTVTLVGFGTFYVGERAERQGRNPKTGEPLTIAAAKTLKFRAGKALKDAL

[2] = target: T2, HU (Mycoplasma gallisepticum) (UniProt A0A0F6CKR5); experiment: EMSA; details: 20 mM Tris-HCl pH 8.0, 150 mM NaCl, 7% glycerol; 15 min; labelled DNA 10.5 nM; gel in 100 mM Tris-borate; temperature not stated; low values mean tight binding
T2 sequence: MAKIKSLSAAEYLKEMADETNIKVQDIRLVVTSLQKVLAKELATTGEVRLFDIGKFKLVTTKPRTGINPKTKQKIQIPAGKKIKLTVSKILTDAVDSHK

[3] = target: T3, HU (Spiroplasma melliferum) (UniProt A0ABX5UAT3); experiment: EMSA; details: 20 mM Tris-HCl pH 8.0, 150 mM NaCl, 7% glycerol; 15 min; labelled DNA 10.5 nM; gel in 100 mM Tris-borate; temperature not stated; low values mean tight binding
T3 sequence: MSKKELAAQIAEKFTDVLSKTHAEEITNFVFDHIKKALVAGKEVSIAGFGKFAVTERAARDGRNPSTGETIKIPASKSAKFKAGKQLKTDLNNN

[4] = target: T4, HU alpha (Escherichia coli) (UniProt P0ACF0); experiment: EMSA; details: 20 mM Tris-HCl pH 8.0, 150 mM NaCl, 7% glycerol; 15 min; labelled DNA 10.5 nM; gel in 100 mM Tris-borate; temperature not stated; low values mean tight binding
T4 sequence: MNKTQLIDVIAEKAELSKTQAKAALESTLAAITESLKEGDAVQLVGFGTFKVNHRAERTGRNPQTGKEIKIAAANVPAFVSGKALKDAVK

[5] = tested on: HU (Mycoplasma gallisepticum); experiment: EMSA; details: 20 mM Tris-HCl pH 8.0, 7% glycerol, 40 mM NaCl (dsDNA length series, 200 nM DNA, gel 50 mM Tris-borate) or 150 mM NaCl (distorted structures, 10.5 nM DNA, gel …)
[6] = tested on: HU (Spiroplasma melliferum); experiment: EMSA; details: 20 mM Tris-HCl pH 8.0, 7% glycerol, 40 mM NaCl (dsDNA length series, 200 nM DNA, gel 50 mM Tris-borate) or 150 mM NaCl (distorted structures, 10.5 nM DNA, gel …)
HU [7] = target: T5, HU (Neisseria gonorrhoeae, UniProt Q5F8J6 1-89); experiment: EMSA; details: 20 mM Tris-HCl pH 8.0, 7% glycerol, 40 mM NaCl (dsDNA length series, 200 nM DNA, gel 50 mM Tris-borate) or 150 mM NaCl (distorted structures, 10.5 nM DNA, gel …)
T5 sequence: T1 sequence

HU [8] = target: T5, HU; experiment: EMSA; 40 mM NaCl; 2 complexes; 20 mM Tris-HCl pH 8.0, 7% glycerol, 40 mM NaCl (dsDNA length series, 200 nM DNA, gel 50 mM Tris-borate) or 150 mM NaCl (distorted structures, 10.5 nM DNA, gel 100 mM Tris-borate); 15 min, temperature not stated; details: protein: recombinant; tags: N-terminal 6xHisTEV removed by TEV protease; chain copies: 2; label: 5'-HEX; blunt
HU alpha [9] = target: T6, HU alpha (Escherichia coli, UniProt P0ACF0 1-90); experiment: EMSA; 40 mM NaCl; 20 mM Tris-HCl pH 8.0, 7% glycerol, 40 mM NaCl (dsDNA length series, 200 nM DNA, gel 50 mM Tris-borate) or 150 mM NaCl (distorted structures, 10.5 nM DNA, gel 100 mM Tris-borate); 15 min, temperature not stated; details: protein: recombinant; tags: N-terminal 6xHisTEV removed by TEV protease; chain copies: 2; label: 5'-HEX; blunt
HU [10] = target: T5, HU; experiment: EMSA; 40 mM NaCl; 3 complexes; 20 mM Tris-HCl pH 8.0, 7% glycerol, 40 mM NaCl (dsDNA length series, 200 nM DNA, gel 50 mM Tris-borate) or 150 mM NaCl (distorted structures, 10.5 nM DNA, gel 100 mM Tris-borate); 15 min, temperature not stated; details: protein: recombinant; tags: N-terminal 6xHisTEV removed by TEV protease; chain copies: 2; label: 5'-HEX; blunt
HU [11] = target: T5, HU; experiment: EMSA; 150 mM NaCl; 20 mM Tris-HCl pH 8.0, 7% glycerol, 40 mM NaCl (dsDNA length series, 200 nM DNA, gel 50 mM Tris-borate) or 150 mM NaCl (distorted structures, 10.5 nM DNA, gel 100 mM Tris-borate); 15 min, temperature not stated; details: protein: recombinant; tags: N-terminal 6xHisTEV removed by TEV protease; chain copies: 2; label: 5'-HEX on strand 1; four-way junction 1:2 2:3 3:4 4:1
HU [12] = target: T7, HU (Spiroplasma melliferum, UniProt A0ABX5UAT3 1-94); experiment: EMSA; 20 mM Tris-HCl pH 8.0, 150 mM NaCl, 7% glycerol; 15 min; labelled DNA 10.5 nM; gel in 100 mM Tris-borate; temperature not stated; details: protein: recombinant, tags: N-terminal 6xHisTEV removed by TEV protease, chain copies: 2, label: 5'-HEX on strand 1
T7 sequence: T3 sequence

HU alpha [13] = target: T6, HU alpha; experiment: as above; details: protein: recombinant, tags: N-terminal 6xHisTEV removed by TEV protease, chain copies: 2, label: 5'-HEX on strand 1
HU [14] = target: HU (Mycoplasma gallisepticum, UniProt A0A0F6CKR5 1-99); experiment: as above; details: protein: recombinant, tags: N-terminal 6xHisTEV removed by TEV protease, chain copies: 2, label: 5'-HEX on strand 1
HU [15] = target: T5, HU; experiment: as above; details: protein: recombinant, tags: N-terminal 6xHisTEV removed by TEV protease, chain copies: 2, label: 5'-HEX on strand 1
HU [16] = target: T5, HU; experiment: EMSA; 40 mM NaCl; 4 complexes; 20 mM Tris-HCl pH 8.0, 7% glycerol, 40 mM NaCl (dsDNA length series, 200 nM DNA, gel 50 mM Tris-borate) or 150 mM NaCl (distorted structures, 10.5 nM DNA, gel 100 mM Tris-borate); 15 min, temperature not stated; details: protein: recombinant; tags: N-terminal 6xHisTEV removed by TEV protease; chain copies: 2; label: 5'-HEX; blunt
HU alpha [17] = target: T6, HU alpha; experiment: EMSA; 40 mM NaCl; 3 complexes; 20 mM Tris-HCl pH 8.0, 7% glycerol, 40 mM NaCl (dsDNA length series, 200 nM DNA, gel 50 mM Tris-borate) or 150 mM NaCl (distorted structures, 10.5 nM DNA, gel 100 mM Tris-borate); 15 min, temperature not stated; details: protein: recombinant; tags: N-terminal 6xHisTEV removed by TEV protease; chain copies: 2; label: 5'-HEX; blunt
[18] = four-way junction 1:2 2:3 3:4 4:1
[19] = duplex with 7 unpaired A in strand 2
[20] = duplex with 1 unpaired A in strand 2
[21] = duplex with 3 unpaired A in strand 2

AGTCTAGAGTGCAGTTGAGTCCTTGCTACGACGGATCCCTTAGGTCAG (double strand) [D48 dsDNA (ds)]
Kd [1]: 1100 nM
Kd [2]: 440 nM
Kd [3]: 117 nM
Kd [4]: 293 nM

AGTCTAGAGTGCAGTTGAGTCCTTGCTACGACGGATCCCTTAGGTCAG / CTGACCTAAGGGATCCGTCGTAGCAAGGGGCTGATACCGGAAGCTTCT / AGAAGCTTCCGGTATCAGCCTGAGCGGTGGTTGAATTCCT / AGGAATTCAACCACCGCTCAACTCAACTGCACTCTAGACT [four-way junction (J)]
binding signal (fold affinity vs nicked DNA) [5]: 10

AGTCTAGAGTGCAGTTGAGTCCTTGCTACGACGGATCCCTTAGGTCAG / CTGACCTAAGGGATCCGTCGTAGCAAGAGACTCAACTGCACTCTAGACT [bulge A1]
Kd [5]: 132 nM
Kd [6]: 35 nM

DNA invasion (inv)
binding signal (fold affinity vs nicked DNA) [5]: 20
binding signal (fold affinity vs nicked DNA) (HU [7]): 5

B1: D21 dsDNA (dsDNA)
DNA 1: AGTCTAGAGTGCAGTTGAGTC
DNA 2: GACTCAACTGCACTCTAGACT
binding result (HU [8]): binds
binding result (HU alpha [9]): binds

B2: D27 dsDNA (dsDNA)
DNA 1: AGTCTAGAGTGCAGTTGAGTCCTTGCT
DNA 2: AGCAAGGACTCAACTGCACTCTAGACT
binding result (HU [10]): binds

B3: four-way junction (J) (structured_DNA)
DNA 1: AGTCTAGAGTGCAGTTGAGTCCTTGCTACGACGGATCCCTTAGGTCAG
DNA 2: CTGACCTAAGGGATCCGTCGTAGCAAGGGGCTGATACCGGAAGCTTCT
DNA 3: AGAAGCTTCCGGTATCAGCCTGAGCGGTGGTTGAATTCCT
DNA 4: AGGAATTCAACCACCGCTCAACTCAACTGCACTCTAGACT
binding signal (HU [11]): 4 fold affinity vs nicked DNA
Kd (HU [12]; [18]): 35 ± 8 nM
Kd (HU alpha [13]; [18]): 44 ± 10 nM
Kd (HU [14]; [18]): 26 ± 6 nM
Kd (HU [15]; [18]): 110 ± 25 nM

B4: overhang (ov) (structured_DNA)
DNA 1: B3 DNA 1
DNA 2: ACTCAACTGCACTCTAGACT
Kd (HU [12]; 3' overhang 28 nt): 45 ± 10 nM
Kd (HU alpha [13]; 3' overhang 28 nt): 50 ± 15 nM
Kd (HU [14]; 3' overhang 28 nt): 30 ± 8 nM
Kd (HU [15]; 3' overhang 28 nt): 120 ± 25 nM

B5: bulge A7 (structured_DNA)
DNA 1: B3 DNA 1
DNA 2: CTGACCTAAGGGATCCGTCGTAGCAAGAAAAAAAGACTCAACTGCACTCTAGACT
Kd (HU [12]; [19]): 12 ± 4 nM
Kd (HU alpha [13]; [19]): 44 ± 10 nM
Kd (HU [14]; [19]): 44 ± 12 nM
Kd (HU [15]; [19]): 220 ± 60 nM

B6: bulge A1 (structured_DNA)
DNA 1: B3 DNA 1
DNA 2: CTGACCTAAGGGATCCGTCGTAGCAAGAGACTCAACTGCACTCTAGACT
Kd (HU [12]; [20]): 35 ± 8 nM
Kd (HU alpha [13]; [20]): 88 ± 20 nM
Kd (HU [14]; [20]): 132 ± 30 nM
Kd (HU [15]; [20]): 440 ± 120 nM

B7: nicked DNA (n) (structured_DNA)
DNA 1: B3 DNA 1
DNA 2: CTGACCTAAGGGATCCGTCGTAGCAAGG
DNA 3: ACTCAACTGCACTCTAGACT
Kd (HU [12]; nick 1:2 1:3): 35 ± 8 nM
Kd (HU alpha [13]; nick 1:2 1:3): 88 ± 20 nM
Kd (HU [14]; nick 1:2 1:3): 264 ± 70 nM
Kd (HU [15]; nick 1:2 1:3): 440 ± 100 nM

B8: bulge A3 (structured_DNA)
DNA 1: B3 DNA 1
DNA 2: CTGACCTAAGGGATCCGTCGTAGCAAGAAAGACTCAACTGCACTCTAGACT
Kd (HU [12]; [21]): 35 ± 8 nM
Kd (HU alpha [13]; [21]): 88 ± 20 nM
Kd (HU [14]; [21]): 132 ± 30 nM
Kd (HU [15]; [21]): 440 ± 120 nM

B9: D36 dsDNA (dsDNA)
DNA 1: AGTCTAGAGTGCAGTTGAGTCCTTGCTACGACGGAT
DNA 2: ATCCGTCGTAGCAAGGACTCAACTGCACTCTAGACT
binding result (HU alpha [9]): binds
binding result (HU [16]): binds

B10: D29 dsDNA (dsDNA)
DNA 1: AGTCTAGAGTGCAGTTGAGTCCTTGCTAC
DNA 2: GTAGCAAGGACTCAACTGCACTCTAGACT
binding result (HU alpha [17]): binds
